Source: PMC12713436 (2025)

Target: secretory immunoglobulin A1 (sIgA1) from human colostrum (human (endogenous in colostrum), UniProt P01591 23-159; P01833 19-603, dense O-glycosylation, predominantly in the hinge region)
Experiment: apparent Kd from DLS Hill fit, h = 2.04

Chain of secretory immunoglobulin A1 (sIgA1) from human colostrum (chain, as listed by the source, chain 1 of 3): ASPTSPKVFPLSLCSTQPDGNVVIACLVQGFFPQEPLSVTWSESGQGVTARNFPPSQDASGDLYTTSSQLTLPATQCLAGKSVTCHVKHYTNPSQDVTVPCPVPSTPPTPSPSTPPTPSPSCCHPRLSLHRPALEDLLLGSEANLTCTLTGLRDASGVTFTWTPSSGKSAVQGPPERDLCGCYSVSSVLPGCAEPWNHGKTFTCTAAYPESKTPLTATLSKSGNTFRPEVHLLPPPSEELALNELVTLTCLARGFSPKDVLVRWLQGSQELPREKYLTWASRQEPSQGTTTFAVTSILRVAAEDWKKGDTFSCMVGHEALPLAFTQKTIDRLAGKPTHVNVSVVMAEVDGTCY
Chain of secretory immunoglobulin A1 (sIgA1) from human colostrum (P01591 23-159, chain 2 of 3): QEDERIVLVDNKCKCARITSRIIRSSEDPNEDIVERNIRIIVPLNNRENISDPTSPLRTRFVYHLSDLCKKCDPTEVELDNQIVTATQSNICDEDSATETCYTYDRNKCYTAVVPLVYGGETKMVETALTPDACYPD
Chain of secretory immunoglobulin A1 (sIgA1) from human colostrum (P01833 19-603, chain 3 of 3): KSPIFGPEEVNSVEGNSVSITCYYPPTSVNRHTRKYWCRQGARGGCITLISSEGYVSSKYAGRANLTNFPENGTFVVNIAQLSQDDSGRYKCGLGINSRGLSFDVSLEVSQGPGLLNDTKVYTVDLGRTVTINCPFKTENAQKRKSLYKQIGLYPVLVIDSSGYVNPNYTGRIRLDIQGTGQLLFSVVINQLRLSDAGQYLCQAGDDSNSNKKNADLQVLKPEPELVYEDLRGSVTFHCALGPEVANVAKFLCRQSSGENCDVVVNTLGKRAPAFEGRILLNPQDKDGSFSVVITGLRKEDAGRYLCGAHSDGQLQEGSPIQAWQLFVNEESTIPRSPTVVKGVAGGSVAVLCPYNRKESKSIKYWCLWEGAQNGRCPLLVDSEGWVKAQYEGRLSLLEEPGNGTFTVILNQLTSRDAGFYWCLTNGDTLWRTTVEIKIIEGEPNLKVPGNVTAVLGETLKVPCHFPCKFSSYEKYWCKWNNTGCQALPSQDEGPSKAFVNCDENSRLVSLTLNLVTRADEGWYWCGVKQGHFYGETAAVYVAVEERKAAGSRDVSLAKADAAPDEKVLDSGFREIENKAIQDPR

Kd: 930 nM
B1: frutalin (FTL), galactose-specific jacalin-related lectin from Artocarpus altilis (syn. Artocarpus incisa) seeds (natural protein)
chain 1: GKAFDDGAFTGIREINLSYNKETAIGDFQVIYDLNGSPFVGQNHTSFITGFTPVKISLDFPSEYIIEVSGHTGKVSGYVVVRSLAFKTNKKTYGPYGVTSGTPFNLPIENGLIVGFKGSIGYWLDYFSMYLSL
chain 2: AEQSGKSQTVIVGPWGAQVS
modifications: α-chain glycoisoforms (differential glycosylation and limited proteolysis)
